Test: soluble on expression in E. coli; label from the status in PepcDB or PDB records

Row | Sequence | soluble on expression in E. coli
1 | MEYHMGNTMTKAIYDKFKSATPYGNKVATGPTPTEAVDITVSVGGFKVGDQNYPINPKITFTNNTGQAIPGGTEFQFDIPVSAPDNAKDQSGGGLKVIASGHTRANNIGGLDGVMHRVSFSLPAWKDLPAGGTYELDMVYYLPISGPANYSVISGGKEFAFKFEQPDLPIGDLNALEHHHHHH | soluble
2 | MAMMAKHQAVKKIFDQIATKYDLIDTIISLGLDQHWRRVLVSSLGLREGMRCLDCGAGSGKVTELIYFRCGGCDVTALDITDSMFNPELKKYVKFVVSPAESLPFPDASFDRVSSAFLTRNLADIDRYFAEVYRVLRPGGVFVNMDIYNPTRPVISEFFSLYFYRFVPFFGNRATGSKNYTYLANTVKYFHRPSVISQKLADRGFSVEATDLFFGAVYLHRSVKPEGRGLEHHHHHH | not soluble
3 | MGSDKIHHHHHHMKISETANKNHEELFPDHKSALKITDPELVEIFDNFAFDEVIQHGDLDTKTRLMVILGALIGSQTLSEYKVMLKGALNVGVTPIEVKEIVYQSVPYVGIAKAYDFINATNEILESRGVKLPLEGQSTTTPENRHEKGLEVQKSIFGEIIDKMYESSPKNQIHIQKYLSANCFGDYYTRTGLDIKTRELLTFCIILALGGCESQLKGHIVGNLNVGNDKKVLLDAVTQTLPYVGYPRTLNAIACLNEIIPE | not soluble
4 | MANYPKELPAQTQSRQPGIESEMNPSPVYEYEDYKGADKLKGKVALITGGDSGIGRAVSVAYAKEGADIAIVYKDEHEDAEETKKRVEQEGVKCLLIAGDVGEEEFCNEAVEKTVKELGGLDILVNNAGEQHPKESIKDITSEQLHRTFKTNFYSQFYLTKKAIDYLKPGSAIINTTSINPYVGNPTLIDYTATKGAINAFTRTMAQALVKDGIRVNAVAPGPIWTPLIPATFPEETVAQFGQDTPMGRPGQPVEHVGCYVLLASD | not soluble
5 | MSVPDKFFGRYQLDKSENFDEFLSSKGVNWFVRQMIKLAGLTKIISQNQEAGKYNMENLTSKKNTNYQAWELGKKFEAPGLDGNQHEITFDFKDEILSEHHIRLNEPETSAETYFYTIDDQNQLVMRMENNGIVCRRWFKRVEQK | not soluble
6 | MKEEEKTRLVIVQGPTASGKSALALELAERIGGEIVNADSMQVYRGMDIGTAKPSQEERRRVPHHLYDIVDPKVNFTAADFREHASRAIADIERRGKRVILVGGTGLYIRILTQGLVASPGGDDNIRRELEDQAHGEGLESLHRRLAAVDPVAAARLHPNDGVRIVRALEVFLLTGRPLSAFQEAHRFADEPYRCLKLGITVERELLYRRVEERVDRMIAEGLVEEVRGLLSAGYPATLKAMGSIGYREICAHLAGEFSLDEAMRLIKQNTRQYAKRQMTWFRRDSEIIWVEYPGKFDSILSTVMGFYHLEHHHHHH | soluble
7 | MGSDKIHHHHHHMKNLLSTREVAQFLGVNEKMVYTLISDKGLPATKVTGKWLFPAHLVEQWVENSTINFPRRHESAPPAEGVLLVAGSNDILFERTLRLFMDAQPDYIAAFANMGSMGGIKALRRGVCHMATSHLKQEDGAEYNFAHAERELEERPAVVNFCLREQGLLVPRGNPAGISCVADVAGGGLTVANRPLGTGTRLLFDSELAAAGINPARLKGYENEFSRHMDVGLEVLSGRADTAPAIRAVAGLLGLDFIPLGWERFDLLIPRDTFFERHIQLFMGLFTTPEFAALAGQLEGYDTSRAGRVVFPGETLRETRR | not soluble
8 | LARPKLAVVGSRNASQMGVAAVKKIIQDLSKQFVIISGLARGIDTAAHLASLKSGGATIAVIGTGLDVHYPKENRRLQDYIAKNHLLLSEYEAQSQPLKYHFPERNRIIAGLSQGVMVAEAKIRSGSLITCERAMEEGRDVFVVPGNILDGQSEGCHHLIQEGAKCITSGFDILNEFNF | not soluble
9 | MAHHHHHHMYVRSISKELTKRMYNPSGHRIMMMDLKNKTTNNILNSRRYIVSYTKVHRTHYLEDYYTNPEIATNMISPMSEYIWWSWLLLQVN | not soluble
10 | KKRIQTEHCSYNRRRDYPLFKFIEYVLYWGHHYTVSISEKVQEELVKFMPRYQHKYRVVHNGVDLNRFPMTAKQAHDISEKATINIGMVGRLHEHKDHETLIHAIAKLPECYHLHLAGDGDRKASLQRLAQSLNVSPRVHFHGVVSDIPRFLSDMDIYVQSSHVE | not soluble
11 | MGSDKIHHHHHHMLRAGWFFEGIQDNDLLKLKEACKAFNLDGVLLSSLVLSRLYGVCYVLLGTVDGGDLDQPFDLNKLGIGRLEFFTVLKKKYIEADTSKYLSPKEAGGLLKQPEFYKLKLDGKSTQRIHHTRLYKFGHADVVNEEPVSVLQEVYEDLLDHAAVKKASASLVHESKIDVIRTPNLVDKIKEDMKSVAERFLSVGLLKGLNGMIVLDKEEEYDSKSYSFGGLPDLMREFSIQAAGAADMPYTILFGQSPAGMNATGEHDTRNYYDSIATKQTWSLKPFMMKLLRVIVQTTFGRQIPSLDVVFNPLWQLDAKVRSEVEKANAERDSKYLEMGIITEPQIAKQLVIDGVYSVIDEAHIKELETMVKLNDNDNSDPETTPPAGEET | not soluble
12 | MSLVNDITYGREAEVWPRDYSMLARRIQFLRFNDYPIKLVSSNGHSIIGYISKFNQKENMILASDEAKGNNRVEVKLESIASLEELLVGKDFTTRLIVGDVFNNQPCPPTKKDFFSICNKCFKQGIGIKVHMLDGRILTGKTTGVNACQVGIIKSNGNHMQIMFDWVSRITSSDYSGEGHHHHHH | soluble
13 | MKFEFRTLVLISLAVVVVLSGCSQSPSSGGVPEYSGSKVYSAPTLYSQLIGVPTEGVSVKAYTVENANAKDILSWYKEKLSDYEIVNEMSVVQMTTPQGSAEWGAILFKKGDKGVGIWAMSGSGVEGGGAVYFIVEGPIDKLTGESGEAGGAGEQLPASDQASGEEPVKRYPGSVMLSYYKDTSNPLEVSIGIDYGTEDSAEKVAHWYKQELQAEGWVLESESSDDSSIDLAFSRGKEYIDIYIIEPYEGFLTRKLTSTTGRRGCHLTTWSVERSRWRGIPAQLCWNT | not soluble
14 | MGSDKIHHHHHHMLESTKQFLKKYNINDRVLKLYETAMNDIQNQFKILDDIREFNQLKVLNAFQEERISEAHFTNSSGYGYGDIGRDSLDAVYARVFNTESALVRPHFVNGTHALGAALFGNLRPGNTMLSVCGEPYDTLHDVIGITENSNMGSLKEFGINYKQVDLKEDGKPNLEEIEKVLKEDESITLVHIQRSTGYGWRRALLIEDIKSIVDCVKNIRKDIICFVDNCYGEFMDTKEPTDVGADLIAGSLIKNIGGGIAPTGGYLAGTKDCIEKTSYRLTVPGIGGECGSTFGVVRSMYQGLFLAPHISMEALKGAILCSRIMELAGFEVMPKYDEKRSDIIQSIKFNDKDKLIEFCKGIQTGSPIDSFVSCEPWDMPGYTDQVIMAAGAFIQGSSIELSADAPIREPYIAYLQGGLTFDHAKIGILIALSRIVK | not soluble
15 | TTPMNLTDAIAYILRPFAVLKVPVNDIALMISVALRFIPTLMGETDKIMKAQRARGVDFGEGNLFEQMKVVVPIFIPLFVSSFNRAEELADAMEARGYQGGEGRTRFRILH | not soluble
16 | NPYETFRIADELRRELVGDTVTYVVNRNINFTDICINDCKFCSFRNRKKYLLSLDEIKQKVEEAVEFGCTELCIQGGLLPDADLDFYLSILQAVRDVDKKIHIHAFSPMEVVHAARNSGMTVEEVLKELKKEGLGSMPGTAAEILDDSIRALICPRKLKTAEWVEVIKTAHRVGIPTTATIMYGHIDTWEHRINHLLLIKKIQQETGGITELIPLPFMSKNNELGRYAKGSSGFDDLLMIAIARILLYPEIKNIQASWVKMGQKLAQAALHVGANDLGGTLMEENISKSAGATSGEFMHPEELRELIKIAGRVPKQR | not soluble
17 | MKCIAIDDEPLALKQLTDYISRVPFLSLVKSCQDAFEAMKVLADEEIDLIFVDINMPDLNGLDFIRSLISRPMVVFTTAYSEYAVDGFKLDAVDYLLKPFEFQDLLKAADKARKQYEYRMLEQQGELGNSSQIKGDSLFVKSDYKVVRIDVKNIRYIEGMSEYVRIFIEGEDKPVITLASLQKMEERLPTYFMRVHRSYIVNLRKITEVSRLRIIFDRNTYIPVGDNYKERFAEHISKLSFS | not soluble
18 | MIMHIPKSTYYHKWFIGATLVVPVLPLAAQTSPNLVFIMADQYRGDALGCLGKEPVKTPCLDHLASEGVLFTNAVSSYPVSSPARAMLMTGMYPLHNKVTGNCNSQTAPYGVELPQEARCWSDVLKDMNYRTGYIGKWHLDSPYKPYVDTYNNRGKVAWNEWCPPERRHGFEYWTAYGTYDYHLKPMYWDTTAPRDSFYYVNQWGPAYEADKAIEYIQTQKENKQPFALVVSMNPPHTGYELVPDKYKALYKDIDVEALCAHRPDIPAKGTEMGNYFRNNIRNYYACITGVDEQVGRIIETLKSNGLFENTIIVFTSDHGICMGAHNNAGKDIFYEEAMRIPMIISWPAKIKPRKDDHLMIAFADLYPSLLSLMGFRKEIPETVQTFDLSRHILGKSKKEVVQPYYYVQFDNHATGYRGLRTSTHTFAVHATNGKIDETVLFDRTKDPYQMDNIAGQSPRLVRQFNKQLKAWLLHTNDSFAHYLETVTK | not soluble
19 | MAFIHTSLTRLMRFAVDQTKDIIEPLMVTKVLTEFSESENDGLSHYAHYAKFHNYLVPNMAKLAEYSIEERVRVIFGFAAVVSDDFLKQIQREGLVHLDKKKRICKFTSHNGKWKLEGDHSHSARMKRRWSMRVRVVVGLPSLMNFLVEKTKDIIEPMLASAAFREFSESEDGGLPEHAYYNHFHKNVAPNMAKIEEYSIEERVRVMFALAGRVSADFRAQTKGLVELDDGKRISKFTSTDGKLKLEGDHSDSARRKRSAAFYRKTDHHCRSANDSKPRRKNGRQSDSEFSDKSGSDEDDVESAISYGNSPKRARCEKSADPEMHVSSGSDDDEVEDVGGMDEEPVLLPIDSDESHIGHLQNGEEMMVEDDNQPIPEDPQYSANSSHQGRRMSGRIQEKLSASIAQETTDAAVAIPHVPILNPPFESDDEEVKYIGAVKGQPKPGPIESVFDQINNRDHFQGNQEYRNQSISERKVDVPLFVEHQQISLSAENRATSAEWKSIFLHDFLKQLTQFICFFECSELAEIKRNIKEVMADEGKISSFQKLEIIDIRTVLGAFFFGVSRKIKSTGSNNSTMKAKDFLVTFKYFLLGLDFSELLELSTVFKRKLTSSHVQRHPPSSPKPTLHNF | not soluble
20 | MELLLSKVTDAGIDPSSVSGEEAITLWEHIGRHIASTSREKAHCLIISAEYRREIKQLCDSIEELRQALELLSLPEDVEDILSVKASLSERLVEVGDYNSALTEYIASTNIAVEYGFIDEYVLAIIGMGNLCDAYGDHNRALRYYQKIDAIDHAISSRSLRLRYKLYMLACYISLKRVAEASELLGECEELSILVSDKNLAAQTHLYRAKLHRLQEEYSEALLSISSIKYTTGSATTYWLSTMVKIETAYCLNGVGHTSLANLLLESIGKRIKKHSSPILAKRFYNAMSKVSASQGQFQQALSCEKRAFRIESDLIKHIPISELGAAQLRRLSRFELQLKLILSEIENKEL | not soluble
21 | MKAIILAGGQSERFGEPKAFAQINAQPFYKRIIDVLEGTNMFNQIIISTNETLASQFDHSDIIIDEDQNKDKGPLAGIQSVIQHYESEELFFVVSVDTPMISQKAVSKLYQFMVEHLIEDQLDIAGFKEKGRPIPTIAFYSPHTLPYIDDALNSNDYSLKSVYNKVKSDWLDVNLIESPDYWYKNINYQQDLDSLQQDILNR | not soluble
22 | MAVELNQLRDQIDEVDKQMVELLARRLALVEQVGQVKSRYGLPIYAPDREAAMLASRRAEAESKGVPPQLIEDILRRTMRESYASEKDSGFKCLNPELRSVVIVGGNGQLGRLFGRMFKLSGYQVKVLGSQDWDKADELLSDAGLVVVTVPIHLTLGVIEKLRQLPDDCILCDLTSIKAKPLAAMLQVHKGPVVGLHPMFGPDVPSLAKQVIVYCDGRGNEHYQWLLQQFAIWGASLCQIDADEHDRGMTLIQALRHFTSFAYGLHLTKENPNLAQLLKLSSPIYRLELAMVGRLFGQDPHLYGDIILSSPENIEMIQRFHRCLSDAVELVSAGDKASFVAQFERVSQWFGDYSQQFMHESQNLLKQANDAIHRG | not soluble

Source: the DeepSol protein solubility set
